Positions count from the first letter of the chain named. In names and notes the source's numbering stands.
T1: hGITR.mmH (soluble monomeric recombinant human GITR ectodomain protein) (human)
T1 construct: also called monomeric human GITR
T1 chain: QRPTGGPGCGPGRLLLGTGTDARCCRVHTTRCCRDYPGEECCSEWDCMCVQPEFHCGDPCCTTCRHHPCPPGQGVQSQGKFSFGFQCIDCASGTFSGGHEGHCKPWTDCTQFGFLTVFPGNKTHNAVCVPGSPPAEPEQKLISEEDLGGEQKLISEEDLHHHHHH

T2: hGITR.mFc (dimeric recombinant human GITR ectodomain protein, mouse Fc fusion) (human)
T2 construct: also called dimeric human GITR; dimeric GITR
T2 chain: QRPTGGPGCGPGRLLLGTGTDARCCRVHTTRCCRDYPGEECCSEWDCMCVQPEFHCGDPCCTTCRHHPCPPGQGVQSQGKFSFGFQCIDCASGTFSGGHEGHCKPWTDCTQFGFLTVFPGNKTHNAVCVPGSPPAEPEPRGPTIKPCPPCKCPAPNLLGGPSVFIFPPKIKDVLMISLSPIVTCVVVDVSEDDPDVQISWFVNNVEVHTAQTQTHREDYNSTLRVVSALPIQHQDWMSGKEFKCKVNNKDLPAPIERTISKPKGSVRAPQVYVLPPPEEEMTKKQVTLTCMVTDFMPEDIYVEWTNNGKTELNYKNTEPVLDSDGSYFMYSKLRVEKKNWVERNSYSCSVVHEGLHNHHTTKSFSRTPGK

B1: CompAb1 heavy chain variant N101A (antibody, human IgG1, V domains shown)
VH: QVQLQESGPGLVKPSETLSLTCIVSGGSISGYFWNWIRQPPGKGLEWIGYIYYSGTTIYNPSLKSRFTISLDTSKNQFSLKLTSVTAADTAVYYCARESYAPSPRYFDHWGQGTLVTVSS
VL: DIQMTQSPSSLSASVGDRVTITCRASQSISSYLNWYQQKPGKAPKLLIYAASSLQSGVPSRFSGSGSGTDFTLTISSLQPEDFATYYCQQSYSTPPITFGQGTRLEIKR
notes: human IgG1 constant region; tested as CHOt supernatant; also called Sample Number 2
B2: CompAb1 heavy chain variant N101F (antibody, human IgG1, V domains shown)
VH: B1 VH with A101F
VL: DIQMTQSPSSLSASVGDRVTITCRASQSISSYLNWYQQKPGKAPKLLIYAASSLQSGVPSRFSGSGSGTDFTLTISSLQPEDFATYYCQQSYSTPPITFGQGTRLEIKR
notes: human IgG1 constant region; tested as CHOt supernatant; also called Sample Number 5
B3: CompAb1 heavy chain variant N101L (antibody, human IgG1, V domains shown)
VH: B1 VH with A101L
VL: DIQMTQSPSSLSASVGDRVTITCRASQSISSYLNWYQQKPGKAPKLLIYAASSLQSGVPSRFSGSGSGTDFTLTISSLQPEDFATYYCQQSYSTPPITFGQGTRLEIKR
notes: human IgG1 constant region; tested as CHOt supernatant; also called Sample Number 10
B4: CompAb1 heavy chain variant S103K (antibody, human IgG1, V domains shown)
VH: B1 VH with A101N, S103K
VL: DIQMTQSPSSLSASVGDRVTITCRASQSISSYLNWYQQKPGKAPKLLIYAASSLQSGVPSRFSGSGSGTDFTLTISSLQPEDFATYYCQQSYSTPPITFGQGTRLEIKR
notes: human IgG1 constant region; tested as CHOt supernatant; also called Sample Number 27
B5: CompAb1 heavy chain variant S103R (antibody, human IgG1, V domains shown)
VH: B1 VH with A101N, S103R
VL: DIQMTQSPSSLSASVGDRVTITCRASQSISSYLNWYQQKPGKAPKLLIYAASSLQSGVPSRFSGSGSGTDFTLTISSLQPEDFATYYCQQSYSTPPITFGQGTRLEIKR
notes: human IgG1 constant region; tested as CHOt supernatant; also called Sample Number 33
B6: mAb2 (antibody, human IgG1, kappa, V domains shown)
VH: B1 VH with A101E
VL: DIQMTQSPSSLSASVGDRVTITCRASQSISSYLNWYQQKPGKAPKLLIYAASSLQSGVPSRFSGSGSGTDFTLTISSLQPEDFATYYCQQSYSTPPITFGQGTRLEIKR
notes: Human IgG1; N101E variant of CompAb1; also called N101E Variant; N101E
B7: mAb3 (antibody, human IgG1, kappa, V domains shown)
VH: B1 VH with A101S
VL: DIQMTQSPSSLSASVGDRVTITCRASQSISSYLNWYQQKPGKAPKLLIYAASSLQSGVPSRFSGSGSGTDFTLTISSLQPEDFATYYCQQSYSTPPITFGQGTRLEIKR
notes: Human IgG1; N101S variant of CompAb1; also called N101S Variant; N101S
B8: mAb4 (antibody, human IgG1, kappa, V domains shown)
VH: B1 VH with A101T
VL: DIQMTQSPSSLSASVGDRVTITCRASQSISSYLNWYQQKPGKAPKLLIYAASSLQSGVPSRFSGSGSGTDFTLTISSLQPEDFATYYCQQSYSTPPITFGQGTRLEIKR
notes: Human IgG1; N101T variant of CompAb1; also called N101T Variant; N101T
B9: CompAb1 (antibody, V domains shown)
VH: B1 VH with A101N
VL: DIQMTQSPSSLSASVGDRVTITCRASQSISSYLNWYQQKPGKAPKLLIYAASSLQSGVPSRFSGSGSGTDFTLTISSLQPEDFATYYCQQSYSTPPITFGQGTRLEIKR
notes: Human IgG1; also called WT; Sample Number 1
B10: CompAb1 heavy chain variant N101I (antibody, human IgG1, V domains shown)
VH: B1 VH with A101I
VL: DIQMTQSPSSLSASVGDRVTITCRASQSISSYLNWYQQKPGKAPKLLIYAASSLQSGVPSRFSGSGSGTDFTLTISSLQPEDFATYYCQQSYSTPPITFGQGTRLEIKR
notes: human IgG1 constant region; tested as CHOt supernatant; also called Sample Number 8
B11: CompAb1 heavy chain variant N101K (antibody, human IgG1, V domains shown)
VH: B1 VH with A101K
VL: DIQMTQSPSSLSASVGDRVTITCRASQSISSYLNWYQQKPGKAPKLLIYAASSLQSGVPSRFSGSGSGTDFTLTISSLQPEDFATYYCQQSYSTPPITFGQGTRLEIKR
notes: human IgG1 constant region; tested as CHOt supernatant; also called Sample Number 9
B12: CompAb1 heavy chain variant N101M (antibody, human IgG1, V domains shown)
VH: B1 VH with A101M
VL: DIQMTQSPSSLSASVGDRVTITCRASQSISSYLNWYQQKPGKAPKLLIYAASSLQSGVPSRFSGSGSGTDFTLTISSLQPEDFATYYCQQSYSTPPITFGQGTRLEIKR
notes: human IgG1 constant region; tested as CHOt supernatant; also called Sample Number 11
B13: CompAb1 heavy chain variant N101Q (antibody, human IgG1, V domains shown)
VH: B1 VH with A101Q
VL: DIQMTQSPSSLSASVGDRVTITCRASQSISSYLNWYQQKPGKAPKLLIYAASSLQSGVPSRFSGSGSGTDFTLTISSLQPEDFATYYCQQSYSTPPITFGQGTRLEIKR
notes: human IgG1 constant region; tested as CHOt supernatant; also called Sample Number 13
B14: CompAb1 heavy chain variant N101R (antibody, human IgG1, V domains shown)
VH: B1 VH with A101R
VL: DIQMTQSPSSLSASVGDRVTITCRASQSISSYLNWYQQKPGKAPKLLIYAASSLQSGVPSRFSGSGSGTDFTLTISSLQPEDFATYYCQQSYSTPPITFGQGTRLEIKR
notes: human IgG1 constant region; tested as CHOt supernatant; also called Sample Number 14
B15: CompAb1 heavy chain variant N101V (antibody, human IgG1, V domains shown)
VH: B1 VH with A101V
VL: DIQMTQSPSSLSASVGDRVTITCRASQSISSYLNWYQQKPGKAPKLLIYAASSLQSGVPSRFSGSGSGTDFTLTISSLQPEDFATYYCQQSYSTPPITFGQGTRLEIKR
notes: human IgG1 constant region; tested as CHOt supernatant; also called Sample Number 17
B16: CompAb1 heavy chain variant S103A (antibody, human IgG1, V domains shown)
VH: B1 VH with A101N, S103A
VL: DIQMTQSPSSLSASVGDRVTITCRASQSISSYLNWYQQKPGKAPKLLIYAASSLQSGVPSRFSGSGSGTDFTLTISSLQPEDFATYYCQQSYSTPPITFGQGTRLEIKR
notes: human IgG1 constant region; tested as CHOt supernatant; also called Sample Number 20
B17: CompAb1 heavy chain variant S103D (antibody, human IgG1, V domains shown)
VH: B1 VH with A101N, S103D
VL: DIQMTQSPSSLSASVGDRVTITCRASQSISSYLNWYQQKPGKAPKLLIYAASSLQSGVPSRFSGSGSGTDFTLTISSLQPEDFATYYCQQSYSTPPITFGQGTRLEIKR
notes: human IgG1 constant region; tested as CHOt supernatant; also called Sample Number 21
B18: CompAb1 heavy chain variant S103E (antibody, human IgG1, V domains shown)
VH: B1 VH with A101N, S103E
VL: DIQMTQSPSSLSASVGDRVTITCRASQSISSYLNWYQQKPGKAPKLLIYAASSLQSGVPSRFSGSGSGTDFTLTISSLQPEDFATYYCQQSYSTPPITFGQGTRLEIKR
notes: human IgG1 constant region; tested as CHOt supernatant; also called Sample Number 22
B19: CompAb1 heavy chain variant S103F (antibody, human IgG1, V domains shown)
VH: B1 VH with A101N, S103F
VL: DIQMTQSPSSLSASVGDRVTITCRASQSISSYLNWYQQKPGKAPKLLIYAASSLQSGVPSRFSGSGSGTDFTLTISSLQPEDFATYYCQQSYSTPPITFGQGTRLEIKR
notes: human IgG1 constant region; tested as CHOt supernatant; also called Sample Number 23
B20: CompAb1 heavy chain variant S103G (antibody, human IgG1, V domains shown)
VH: B1 VH with A101N, S103G
VL: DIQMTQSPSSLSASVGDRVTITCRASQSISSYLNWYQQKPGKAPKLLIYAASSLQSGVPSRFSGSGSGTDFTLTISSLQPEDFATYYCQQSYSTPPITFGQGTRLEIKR
notes: human IgG1 constant region; tested as CHOt supernatant; also called Sample Number 24
B21: CompAb1 heavy chain variant S103H (antibody, human IgG1, V domains shown)
VH: B1 VH with A101N, S103H
VL: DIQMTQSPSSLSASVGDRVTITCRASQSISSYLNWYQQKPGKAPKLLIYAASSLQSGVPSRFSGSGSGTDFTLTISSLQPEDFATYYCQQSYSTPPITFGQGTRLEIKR
notes: human IgG1 constant region; tested as CHOt supernatant; also called Sample Number 25
B22: CompAb1 heavy chain variant S103I (antibody, human IgG1, V domains shown)
VH: B1 VH with A101N, S103I
VL: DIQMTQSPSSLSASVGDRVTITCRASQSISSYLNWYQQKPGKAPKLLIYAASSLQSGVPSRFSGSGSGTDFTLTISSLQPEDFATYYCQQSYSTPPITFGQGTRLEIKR
notes: human IgG1 constant region; tested as CHOt supernatant; also called Sample Number 26
B23: CompAb1 heavy chain variant S103L (antibody, human IgG1, V domains shown)
VH: B1 VH with A101N, S103L
VL: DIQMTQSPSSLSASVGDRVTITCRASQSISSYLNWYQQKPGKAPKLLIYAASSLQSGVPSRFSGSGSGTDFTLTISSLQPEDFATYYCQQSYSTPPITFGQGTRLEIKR
notes: human IgG1 constant region; tested as CHOt supernatant; also called Sample Number 28
B24: CompAb1 heavy chain variant S103M (antibody, human IgG1, V domains shown)
VH: B1 VH with A101N, S103M
VL: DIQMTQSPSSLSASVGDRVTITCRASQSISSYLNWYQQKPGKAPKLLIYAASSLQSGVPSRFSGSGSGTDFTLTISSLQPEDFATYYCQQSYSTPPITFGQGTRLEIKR
notes: human IgG1 constant region; tested as CHOt supernatant; also called Sample Number 29
B25: CompAb1 heavy chain variant S103N (antibody, human IgG1, V domains shown)
VH: B1 VH with A101N, S103N
VL: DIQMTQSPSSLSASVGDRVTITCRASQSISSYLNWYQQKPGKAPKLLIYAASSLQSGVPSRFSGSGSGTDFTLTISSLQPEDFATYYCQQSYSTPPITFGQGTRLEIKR
notes: human IgG1 constant region; tested as CHOt supernatant; also called Sample Number 30
B26: CompAb1 heavy chain variant S103P (antibody, human IgG1, V domains shown)
VH: B1 VH with A101N, S103P
VL: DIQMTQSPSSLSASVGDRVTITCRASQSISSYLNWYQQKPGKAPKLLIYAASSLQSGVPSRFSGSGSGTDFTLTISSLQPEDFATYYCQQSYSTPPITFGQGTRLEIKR
notes: human IgG1 constant region; tested as CHOt supernatant; also called Sample Number 31
B27: CompAb1 heavy chain variant S103Q (antibody, human IgG1, V domains shown)
VH: B1 VH with A101N, S103Q
VL: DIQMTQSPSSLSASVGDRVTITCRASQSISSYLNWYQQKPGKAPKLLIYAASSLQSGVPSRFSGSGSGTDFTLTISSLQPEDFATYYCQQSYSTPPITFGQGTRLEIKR
notes: human IgG1 constant region; tested as CHOt supernatant; also called Sample Number 32
B28: CompAb1 heavy chain variant S103T (antibody, human IgG1, V domains shown)
VH: B1 VH with A101N, S103T
VL: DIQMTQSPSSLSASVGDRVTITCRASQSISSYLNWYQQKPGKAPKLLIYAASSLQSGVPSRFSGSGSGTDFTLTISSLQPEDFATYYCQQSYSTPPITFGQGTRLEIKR
notes: human IgG1 constant region; tested as CHOt supernatant; also called Sample Number 34
B29: CompAb1 heavy chain variant S103V (antibody, human IgG1, V domains shown)
VH: B1 VH with A101N, S103V
VL: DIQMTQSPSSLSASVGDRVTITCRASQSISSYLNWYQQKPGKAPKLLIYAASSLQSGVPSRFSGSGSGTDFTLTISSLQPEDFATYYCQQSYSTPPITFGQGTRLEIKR
notes: human IgG1 constant region; tested as CHOt supernatant; also called Sample Number 35
B30: CompAb1 heavy chain variant S103W (antibody, human IgG1, V domains shown)
VH: B1 VH with A101N, S103W
VL: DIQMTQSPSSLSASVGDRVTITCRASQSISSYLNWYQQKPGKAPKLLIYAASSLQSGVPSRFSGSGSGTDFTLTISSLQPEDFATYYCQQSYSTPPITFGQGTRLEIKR
notes: human IgG1 constant region; tested as CHOt supernatant; also called Sample Number 36
B31: CompAb1 heavy chain variant S103Y (antibody, human IgG1, V domains shown)
VH: B1 VH with A101N, S103Y
VL: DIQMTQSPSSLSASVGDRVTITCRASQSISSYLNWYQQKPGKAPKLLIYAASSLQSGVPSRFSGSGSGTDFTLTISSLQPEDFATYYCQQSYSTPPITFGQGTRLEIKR
notes: human IgG1 constant region; tested as CHOt supernatant; also called Sample Number 37

Biological target: T1, hGITR.mmH (soluble monomeric …)
Assay: SPR Biacore 2000 25C; CHOt supernatant antibody captured on anti-human Fc
Protocol: (§1) Biacore experiments for antibodies secreted in conditioned culture medium were performed as follows. Using a Biacore 2000 instrument at 25° C., antibodies were captured for 80 seconds at a flow rate of 8 uL/min on a CM5 anti-humanFc-coupled surface. Approximately 1000-2000 RU of each antibody were captured. 100 nM hGITR.mmH (soluble monomeric hGITR, SEQ ID NO: 45) or 50 nM hGITR.mFc (dimeric Macaca fasicularis GITR, SEQ ID NO: 46) were injected over this surface for 2 minutes at a flow rate of 50 uL/min. Dissociation was measured for 2 minutes. The KD and t_{1/2} were calculated by fitting the double-referenced sensorgrams to a 1:1 binding model.

| Binder | binding result |
| --- | --- |
| B1 | no binding (tested: 100 nM hGITR.mmH) |
| B2 | no binding (tested: 100 nM hGITR.mmH) |
| B3 | no binding (tested: 100 nM hGITR.mmH) |
| B4 | no binding (tested: 100 nM hGITR.mmH) |
| B5 | no binding (tested: 100 nM hGITR.mmH) |

Biological target: T2, hGITR.mFc (dimeric recombinant human …)
Assay: as above
Protocol: as §1

| Binder | binding result |
| --- | --- |
| B2 | no binding (tested: 50 nM hGITR.mFc) |

Biological target: T2, hGITR.mFc (dimeric recombinant human …)
Assay: SPR Biacore T-200; purified antibody captured on anti-human Fc; 5 nM hGITR.mFc
Protocol: (§2) For purified antibodies, Biacore experiments were performed as follows. Using a Biacore T-200 instrument, antibodies were captured for 30 seconds at a flow rate of 8 uL/min on a CM5 anti-humanFc-coupled surface. Approximately 120 RU of each antibody were captured. 10 nM hGITR.mmH (soluble monomeric hGITR, SEQ ID NO: 45) or 5 nM hGITR.mFc (dimeric Macaca fasicularis GITR, SEQ ID NO: 46) were injected over this surface for 5 minutes at a flow rate of 50 uL/min. Dissociation was measured for 10 min. The KD and t_{1/2} were calculated by fitting the double-referenced sensorgrams to a 1:1 binding model.

| Binder | Kd [nM] | t1/2 [min] |
| --- | --- | --- |
| B6 | 0.902 | 9.55 |
| B7 | 0.882 | 5.56 |
| B8 | 0.663 | 10 |
| B9 | 0.137 | 35.6 |

Biological target: T1, hGITR.mmH (soluble monomeric …)
Assay: SPR Biacore T-200; purified antibody captured on anti-human Fc; 10 nM hGITR.mmH
Protocol: as §2

| Binder | Kd [nM] | t1/2 [min] |
| --- | --- | --- |
| B6 | 11.3 | 2.8 |
| B7 | 6.05 | 4.65 |
| B8 | 8 | 2.25 |
| B9 | 1.51 | 6.75 |

Biological target: T2, hGITR.mFc (dimeric recombinant human …)
Assay: SPR Biacore 2000 25C; CHOt supernatant antibody captured on anti-human Fc; 50 nM hGITR.mFc
Protocol: as §1

| Binder | Kd [nM] | t1/2 [min] |
| --- | --- | --- |
| B6 | 1.27 | 34.9 |
| B7 | 0.908 | 37.7 |
| B8 | 0.284 | 110 |
| B9 | 0.201 | 194 |
| B1 | 42.4 | 0.47 |
| B10 | 27.5 | 0.72 |
| B11 | 26.9 | 0.99 |
| B3 | 57.5 | 0.45 |
| B12 | 24 | 0.82 |
| B13 | 9.98 | 3.86 |
| B14 | 29.4 | 0.86 |
| B15 | 23.9 | 0.98 |
| B16 | 0.529 | 50.3 |
| B17 | 0.595 | 65 |
| B18 | 0.742 | 42.4 |
| B19 | 2.33 | 12.8 |
| B20 | 5.56 | 7.4 |
| B21 | 6.68 | 4.63 |
| B22 | 6.51 | 4.41 |
| B4 | 47.5 | 0.64 |
| B23 | 15.9 | 1.66 |
| B24 | 1.04 | 27.3 |
| B25 | 1.01 | 41.4 |
| B26 | 7.79 | 2.92 |
| B27 | 0.255 | 124 |
| B5 | 45.6 | 0.75 |
| B28 | 0.127 | 249 |
| B29 | 3.82 | 7.8 |
| B30 | 1.61 | 27 |
| B31 | 3.03 | 10.4 |

Biological target: T1, hGITR.mmH (soluble monomeric …)
Assay: SPR Biacore 2000 25C; CHOt supernatant antibody captured on anti-human Fc; 100 nM hGITR.mmH
Protocol: as §1

| Binder | Kd [nM] | t1/2 [min] |
| --- | --- | --- |
| B6 | 109 | 0.99 |
| B7 | 81.9 | 0.92 |
| B8 | 61.3 | 1.52 |
| B9 | 24.9 | 4.56 |
| B10 | 329 | 1.32 |
| B11 | 17 | 4.91 |
| B12 | 152 | 1.93 |
| B13 | 3.41 | 16.7 |
| B15 | 29.1 | 3.46 |
| B16 | 108 | 0.83 |
| B17 | 77.1 | 1.01 |
| B18 | 119 | 0.76 |
| B19 | 7.35 | 13.6 |
| B21 | 12.6 | 16.4 |
| B22 | 10.1 | 11.5 |
| B23 | 85.2 | 4.59 |
| B24 | 4.62 | 15.2 |
| B25 | 119 | 0.95 |
| B26 | 28.4 | 11.2 |
| B27 | 96.8 | 0.92 |
| B28 | 29.6 | 3.88 |
| B29 | 7.39 | 14.7 |
| B30 | 116 | 0.94 |
| B31 | 4.39 | 26.6 |

Reference: US20240076396A1 (Regeneron, published 2024)
